Experimental data as given in article PMC10154539 (Cell Reports, 2023).
Residue numbers refer to the chain shown, from its start.

Tests used:
[1] = target: T1, S-ECD protein of SARS-CoV-2 Omicron (B.1.1.529) (SARS-CoV-2 B.1.1.529 (Omicron), strain); assay: cell-based or functional assay
[2] = target: T1, S-ECD protein of SARS-CoV-2 Omicron …; assay: ELISA
[3] = target: SARS-CoV-2 Spike protein (ECD, His & FLAG tag), Wuhan-Hu-1 (wild-type) (SARS-CoV-2 Wuhan-Hu-1, UniProt P0DTC2); assay: ELISA

B1: XG005a (antibody, V domains shown)
VH: QITLKESGPTLVKPTQTLTLTCTFSGFSLSTSGVGVGWIRQPPGKALEWLALIYWDNDKRYSPSLKSRLTITMDTSKNQVVLTMTNMDPVDTATYYCARLPSTDTIFDYWGQGALVTVSS
VL: QSALTQPASVSGSPGQSITVSCTGTSSDVGDYNYVSWYQQHPGKAPKLMIYDVSKRPSGVSNRFSGSKSGKTASLTISGLQAEDEADYYCSSYTSTSVVFGGGTKLTVL
With B1 the “IC50 of neutralization of Omicron pseudovirus, Huh-7 cells, luciferase” value [1] was > 10 µg/mL and the “ELISA AUC” value [2] was ~26.

B2: XG005c (antibody, V domains shown)
VH: B1 VH with N57D, M73K, L82V, S102A, Y109S, A114T
VL: B1 VL with V20I, D31A, K71Y, A82P, Y89F, S95T
B2 was tested, and the “IC50 of neutralization of Omicron pseudovirus, Huh-7 cells, luciferase” value [1] was 2 µg/mL and the “ELISA AUC” value [2] was ~30.

B3: XG005 (antibody, V domains shown)
VH: QVTLRESGPTLVKPKQTLTLTCTFSGFSLSTPGGGVGWIRQPPGKALEWLALIYWDDDKRYSPSLKSSLTITKDTSKNQVVLTMTNMDPVDTATYYCARLTAADTIFDCWGQGTLVTVSS
VL: B1 VL with Q16L, V20I, G24A, D31A, K44Q, G70A, K71N, S95T
In the case of B3, the “ELISA AUC” value [2] is reported as ~30 and the binding result [3] is reported as “binds”.
